The values that follow come from the supplement of paper PMC12458215.

± gives the uncertainty stated by the source.

This data set deals with HEK293T. Nature of the data set: plasma membrane surface immunostaining intensity (anti-HA, deep receptor scanning) (arbitrary fluorescence units); higher = higher plasma membrane expression.

For “MEEENATLLTEFVLTGFLYQPQWKIPLFLAFLVIYLITIMGNLGLIAVIWKDPHLHIPMYLLLGNLAFVDAWISSTVTPKMLNNFLAKSKMISLSECKIQFFSIAIGVTTECFLLATMAYDRYVAICKPLLYPAIMTNGLCIRLLILSYIAGILHALIHEGFLFRLTFCNSNIVHHIYCDTIPLSKISCTDSSINFLMVFIFSGSIQVFSIVTILISYTFVLFTVLEKKSDKGVRKAFSTCGAHLFSVCLYYGPLLLMYVGPASPQADGQNMVEPLFYTVIIPLLNPIIYSLRNKQVIVSFIKMLKRNVKVSY [OR5H15]”, the “plasma membrane surface immunostaining intensity” value (GPCR class: A (Olfactory)) is 181 ± 56.

In the case of “MRAVFIQGAEEHPAAFCYQVNGSCPRTVHTLGIQLVIYLACAAGMLIIVLGNVFVAFAVSYFKALHTPTNFLLLSLALADMFLGLLVLPLSTIRSVESCWFFGDFLCRLHTYLDTLFCLTSIFHLCFISIDRHCAICDPLLYPSKFTVRVALRYILAGWGVPAAYTSLFLYTDVVETRLSQWLEEMPCVGSCQLLLNKFWGWLNFPLFFVPCLIMISLYVKIFVVATRQAQQITTLSKSLAGAAKHERKAAKTLGIAVGIYLLCWLPFTIDTMVDSLLHFITPPLVFDIFIWFAYFNSACNPIIYVFSYQWFRKALKLTLSQKVFSPQTRTVDLYQE [TAAR5]”, the “plasma membrane surface immunostaining intensity” value (GPCR class: A) stood at 381 ± 140. For “MLSAGLGLLMLVAVVEFLIGLIGNGSLVVWSFREWIRKFNWSSYNLIILGLAGCRFLLQWLIILDLSLFPLFQSSRWLRYLSIFWVLVSQASLWFATFLSVFYCKKITTFDRPAYLWLKQRAYNLSLWCLLGYFIINLLLTVQIGLTFYHPPQGNSSIRYPFESWQYLYAFQLNSGSYLPLVVFLVSSGMLIVSLYTHHKKMKVHSAGRRDVRAKAHITALKSLGCFLLLHLVYIMASPFSITSKTYPPDLTSVFIWETLMAAYPSLHSLILIMGIPRVKQTCQKILWKTVCARRCWGP [TAS2R5]”, the “plasma membrane surface immunostaining intensity” value (GPCR class: Taste) was 123 ± 18. For the sequence “METNFSIPLNETEEVLPEPAGHTVLWIFSLLVHGVTFVFGVLGNGLVIWVAGFRMTRTVNTICYLNLALADFSFSAILPFRMVSVAMREKWPFGSFLCKLVHVMIDINLFVSVYLITIIALDRCICVLHPAWAQNHRTMSLAKRVMTGLWIFTIVLTLPNFIFWTTISTTNGDTYCIFNFAFWGDTAVERLNVFITMAKVFLILHFIIGFSVPMSIITVCYGIIAAKIHRNHMIKSSRPLRVFAAVVASFFICWFPYELIGILMAVWLKEMLLNGKYKIILVLINPTSSLAFFNSCLNPILYVFMGRNFQERLIRSLPTSLERALTEVPDSAQTSNTDTTSASPPEETELQAM [FPR3]”, where the note is “GPCR class: A”, the “plasma membrane surface immunostaining intensity” value is 6430 ± 58. Take “MASTSNVTELIFTGLFQDPAVQSVCFVVFLPVYLATVVGNGLIVLTVSISKSLDSPMYFFLSCLSLVEISYSSTIAPKFIIDLLAKIKTISLEGCLTQIFFFHFFGVAEILLIVVMAYDCYVAICKPLHYMNIISRQLCHLLVAGSWLGGFCHSIIQILVIIQLPFCGPNVIDHYFCDLQPLFKLACTDTFMEGVIVLANSGLFSVFSFLILVSSYIVILVNLRNHSAEGRHKALSTCASHITVVILFFGPAIFLYMRPSSTFTEDKLVAVFYTVITPMLNPIIYTLRNAEVKIAIRRLWSKKENPGRE [OR4B1]”: the “plasma membrane surface immunostaining intensity” value (GPCR class: A (Olfactory)) was found to be 131 ± 38. Regarding “MDLELDEYYNKTLATENNTAATRNSDFPVWDDYKSSVDDLQYFLIGLYTFVSLLGFMGNLLILMALMKKRNQKTTVNFLIGNLAFSDILVVLFCSPFTLTSVLLDQWMFGKVMCHIMPFLQCVSVLVSTLILISIAIVRYHMIKHPISNNLTANHGYFLIATVWTLGFAICSPLPVFHSLVELQETFGSALLSSRYLCVESWPSDSYRIAFTISLLLVQYILPLVCLTVSHTSVCRSISCGLSNKENRLEENEMINLTLHPSKKSGPQVKLSGSHKWSYSFIKKHRRRYSKKTACVLPAPERPSQENHSRILPENFGSVRSQLSSSSKFIPGVPTCFEIKPEENSDVHELRVKRSVTRIKKRSRSVFYRLTILILVFAVSWMPLHLFHVVTDFNDNLISNRHFKLVYCICHLLGMMSCCLNPILYGFLNNGIKADLVSLIHCLHM [NPY5R]”, the “plasma membrane surface immunostaining intensity” value (GPCR class: A) was found to be 269 ± 26. For “MGKENCTTVAEFILLGLSDVPELRVCLFLLFLLIYGVTLLANLGMTALIQVSSRLHTPVYFFLSHLSFVDFCYSSIIVPKMLANIFNKDKAISFLGCMVQFYLFCTCGVTEVFLLAVMAYDRFVAICNPLLYMVTMSQKLRVELTSCCYFCGTVCSLIHSSLALRILFYRSNVINHFFCDLPPLLSLACSDVTVNETLLFLVATLNESVTIMIILTSYLLILTTILKIHSAESRHKAFSTCASHLTAITVSHGTILYIYCRPSSGNSGDVDKVATVFYTVVIPMLNPLIYSLRNKDVNKALRKVMGSKIHS [OR5L2]”, the “plasma membrane surface immunostaining intensity” value (GPCR class: A (Olfactory)) stood at 140 ± 35.
